Patent publication US8247168B2, “Regulation of gene expression by protein methylation” (University of Southern California, priority 1998, dated 2012)
Marks after values point to notes of the source that are not given here.

Experiments:
hnRNPA1 = experiment: Methylation of hnRNP A1, SDS-PAGE and fluorography (FIG. 8C); format: biochemical, human; details: 0.083 mg/ml hnRNP-A1
Method: CARM1 and PRMT1 have different protein methyltransferase substrate specificities. CARM1 methylates histone H3, whereas PRMT1 methylates histone H4. […] (A,B) Calf thymus histones (Boehringer Mannheim) were incubated for 30 min at 30° C. in 32.5 μl reactions containing 20 mM Tris-Cl, 0.2 M NaCl, 4 mM EDTA, pH 8.0, 0.32 mg/ml individual histone (2a, 2b, 3, or 4) or 1.3 mg/ml mixed histone (M), 0.037 mg/ml GST-CARM1 or GST-PRMT1, and 7 μM S-adenosyl-L-[methyl-^3H]methionine (specific activity of 14.7 Ci/mmol). Reactions were stopped by addition of SDS-NuPAGE sample buffer (Novex), and 40% of each stopped reaction was then subjected to SDS-PAGE in 4-12% NuPAGE Bis-Tris gradient gels (Novex) using the Na-MES running buffer. Gels were stained with Coomassie Blue R-250 (A), and then subjected to fluorography (Chamberlin, M. (1978) Anal. Biochem. 98:132) for 12 h at −70° C. on sensitized Kodak XAR-5 film (B). Molecular weight markers (MW) are shown at left. Concentrations of GST fusion proteins were determined in comparison with bovine serum albumin standards (Sigma) by SDS polyacrylamide gel electrophoresis and Coomassie Blue staining; it was assumed that bovine serum albumin stained twice as intensely as most other proteins. Concentrations of histones and hnRNP A1 were determined by the method of Lowry (Lowry, O. H. et al. (1951) J. Biol. Chem. 193:265). […]

[1] = tested on: androgen receptor, estrogen receptor, and thyroid hormone receptor; experiment: Reporter gene activation by hormone-activated nuclear receptors in transiently transfected CV-1 cells; format: cell-based; details: co-expression of GRIP1 with NR, CV-1 cells, hormone present (lane d)
Method: (A) Transient transfection assays with CV-1 cells were performed as in FIG. 5 with 0.5 μg of GK1 reporter gene and 0.5 μg of each of the indicated vectors. (B) CV-1 cells were transiently transfected as in FIG. 5 with the following vectors, as indicated: 0.5 μg of nuclear receptor expression vector pSVAR0 (Brinkmann, A. O. et al. (1989) J. Steroid Biochem. Molec. Biol. 34:307) expressing AR, pHE0 (Green, S. et al. (1988) Nucleic Acids Res. 16:369) expressing ER, or pCMX.hTRβ1 (Feng, W. et al. (1998) Science 280:1747) expressing TR; 0.5 μg of a luciferase reporter gene with an appropriate promoter, MMTV promoter for AR, or MMTV promoter with the native glucocorticoid response elements replaced by a single estrogen response element for ER or palindromic thyroid hormone response element for TR (Umesono, K. and R. M. Evans (1989) Cell 57:1139); 0.5 μg of pSG5.HA-GRIP1; and 0.5 μg of pSG5.HA-CARM1 or pSG5.HA-CARM1 (VLD mutant). Transfection efficiency was monitored by using βgalactosidase activity expressed from 0.1 μg of co-transfected pCMV-βgal vector (Hong, H. et al. (1996) Proc. Natl. Acad. Sci. USA 93:4948-4952) as an internal control. After transfection, cells were grown in charcoal-treated serum; where indicated 20 nM hormone (H), i.e. dihydrotestosterone for AR, estradiol for ER, or triiodothyronine for TR, was included during the last 40 h of culture. […]

[2] = molecular target: T1, K1 peptide SEQ ID NO: 5 […]-NH2 (Mus musculus, UniProt Q9WVG6, W314R); experiment: Methyltransferase reaction with K1 peptide substrate, reversed-phase HPLC separation; format: biochemical; details: substrate K1 peptide (120 μM); enzyme 0.03-0.05 mg/ml
T1 construct: A 3.2-kb partial CARM1 cDNA clone with an open reading frame of 606 amino acids (CARM1(3-608)); made in house; host or cells: E. coli strain BL21
T1 sequence (Q9WVG6 3-608 W314R): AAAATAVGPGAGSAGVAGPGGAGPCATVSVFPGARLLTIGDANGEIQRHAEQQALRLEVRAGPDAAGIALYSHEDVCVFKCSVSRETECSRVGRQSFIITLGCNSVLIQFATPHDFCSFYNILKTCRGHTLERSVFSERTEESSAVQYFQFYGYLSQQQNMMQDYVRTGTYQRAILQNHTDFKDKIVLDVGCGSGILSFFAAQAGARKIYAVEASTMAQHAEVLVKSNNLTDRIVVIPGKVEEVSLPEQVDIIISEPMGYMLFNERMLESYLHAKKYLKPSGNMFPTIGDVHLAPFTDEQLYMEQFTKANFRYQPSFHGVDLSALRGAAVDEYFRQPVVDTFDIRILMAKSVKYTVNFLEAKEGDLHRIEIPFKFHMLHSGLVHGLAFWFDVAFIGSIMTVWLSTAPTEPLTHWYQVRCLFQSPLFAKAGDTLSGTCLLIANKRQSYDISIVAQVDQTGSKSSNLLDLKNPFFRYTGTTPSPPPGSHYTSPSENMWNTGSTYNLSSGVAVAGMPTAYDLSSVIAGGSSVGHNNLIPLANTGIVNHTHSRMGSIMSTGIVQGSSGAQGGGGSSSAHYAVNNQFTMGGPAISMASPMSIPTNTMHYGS

[3] = tested on: mixed histones (calf thymus); experiment: Methyltransferase reaction with mixed histones, reversed-phase HPLC separation; format: biochemical; details: substrate mixed histones (2.7 mg/ml), enzyme 0.03-0.05 mg/ml
[4] = tested on: R1 peptide SEQ ID NO: 4 […]-NH2; experiment: Methyltransferase reaction with R1 peptide substrate, reversed-phase HPLC separation; format: biochemical; details: substrate R1 peptide (120 μM); enzyme 0.03-0.05 mg/ml

PRMT1: related mammalian protein arginine methyltransferase [reference compound]
methylation of hnRNPA1 (hnRNPA1): good substrate

GRIP1: p160 nuclear receptor coactivator
enhancement of reporter gene expression by the hormone-activated NR [1]: 2 to 27 fold

B1: GST-CARM1: glutathione S-transferase fusion protein of CARM1 produced in E. coli (protein)
chain: AAAATAVGPGAGSAGVAGPGGAGPCATVSVFPGARLLTIGDANGEIQRHAEQQALRLEVRAGPDAAGIALYSHEDVCVFKCSVSRETECSRVGRQSFIITLGCNSVLIQFATPHDFCSFYNILKTCRGHTLERSVFSERTEESSAVQYFQFYGYLSQQQNMMQDYVRTGTYQRAILQNHTDFKDKIVLDVGCGSGILSFFAAQAGARKIYAVEASTMAQHAEVLVKSNNLTDRIVVIPGKVEEVSLPEQVDIIISEPMGYMLFNERMLESYLHAKKYLKPSGNMFPTIGDVHLAPFTDEQLYMEQFTKANFRYQPSFHGVDLSALRGAAVDEYFRQPVVDTFDIRILMAKSVKYTVNFLEAKEGDLHRIEIPFKFHMLHSGLVHGLAFWFDVAFIGSIMTVWLSTAPTEPLTHWYQVRCLFQSPLFAKAGDTLSGTCLLIANKRQSYDISIVAQVDQTGSKSSNLLDLKNPFFRYTGTTPSPPPGSHYTSPSENMWNTGSTYNLSSGVAVAGMPTAYDLSSVIAGGSSVGHNNLIPLANTGIVNHTHSRMGSIMSTGIVQGSSGAQGGGGSSSAHYAVNNQFTMGGPAISMASPMSIPTNTMHYGS
modifications: left off: a dimerising Fc or GST
notes: glutathione S-transferase fusion protein of CARM1 produced in E. coli
Methyltransferase specific activity [2]: 0.7 pmol/min/mg
Methyltransferase specific activity [3]: 971 pmol/min/mg
Methyltransferase specific activity [4]: 21.6-54.5^a pmol/min/mg
